These results are taken from doi:10.1101/2024.02.18.580885 (bioRxiv, 2024).

The data set deals with the molecule itself. The data set is described as follows: dynamic light scattering.

B1: TFIP11 N-TER (N-terminal region of Tuftelin Interacting Protein 11) (domain or fragment, human, UniProt Q9UBB9 1-350, looked up)
chain: MSLSHLYRDGEGRIDDDDDERENFEITDWDLQNEFNPNRQRHWQTKEEATYGVWAERDSDDERPSFGGKRARDYSAPVNFISAGLKKGAAEEAELEDSDDEEKPVKQDDFPKDFGPRKLKTGGNFKPSQKGFAGGTKSFMDFGSWERHTKGIGQKLLQKMGYVPGRGLGKNAQGIINPIEAKQRKGKGAVGAYGSERTTQSMQDFPVVDSEEEAEEEFQKELSQWRKDPSGSKKKPKYSYKTVEELKAKGRISKKLTAPQKELSQVKVIDMTGREQKVYYSYSQISHKHNVPDDGLPLQSQQLPQSGKEAKAPGFALPELEHNLQLLIDLTEQEIIQNDRQLQYERDMVV
Regarding B1, the binding result is listed as “binds”.
